Results reported in paper PMC11387744.

Biological target: KDM2B^F-box-LRRs/SKP1 dimer (UniProt Q8NHM5)
Assay: ITC

Chain of KDM2B^F-box-LRRs/SKP1 dimer (Q8NHM5 1059-1336, chain 1 of 2): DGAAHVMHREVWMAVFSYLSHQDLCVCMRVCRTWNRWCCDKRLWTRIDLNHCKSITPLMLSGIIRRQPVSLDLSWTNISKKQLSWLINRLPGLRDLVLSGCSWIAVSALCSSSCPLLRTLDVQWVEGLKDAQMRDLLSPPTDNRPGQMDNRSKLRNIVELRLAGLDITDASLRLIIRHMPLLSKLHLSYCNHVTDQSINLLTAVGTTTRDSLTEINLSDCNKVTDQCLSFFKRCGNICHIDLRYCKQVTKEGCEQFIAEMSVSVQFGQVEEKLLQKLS
Chain of KDM2B^F-box-LRRs/SKP1 dimer (P63208 2-163, chain 2 of 2, further chain): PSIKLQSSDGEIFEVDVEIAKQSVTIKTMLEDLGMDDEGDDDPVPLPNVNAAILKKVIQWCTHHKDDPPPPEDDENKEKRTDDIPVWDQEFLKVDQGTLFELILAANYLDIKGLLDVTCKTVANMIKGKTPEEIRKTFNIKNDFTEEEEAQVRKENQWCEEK

Substance	fold reduction of the affinity against the wild-type pair [fold]
BCOR^N1607 (D/E on Poly-D/E^2nd (1607–1611) mutated to Ala)/PCGF1^RAWUL (from UniProt Q6W2J9 1607-1755; Q9BSM1 150-255) (complex)	> 2.5
BCOR^N1607 (D/E on Poly-D/E^3rd (1624–1631) mutated to Ala)/PCGF1^RAWUL (from UniProt Q6W2J9 1607-1755; Q9BSM1 150-255) (complex)	> 12
